Source: patent publication US20170247448A1 (INTRINSIC LIFESCIENCES, published 2017)
Changes are numbered by the printed parent chain.

Columns and labels:
[1] = biological target: T1, Human hepcidin peptide (hepcidin-25) (human); test: titration affinity ELISA, hepcidin 100 ng/well on Nunc Immobilizer Amino plate; antibody 0 ng/ml (blank)
T1 construct: Synthetic 25 aa peptide; also called hep-25; Hep-25
T1 peptide: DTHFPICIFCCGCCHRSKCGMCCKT
Description: (§1) FIGS. 17A-C. Titration affinity ELISA of humanized hits. FIG. 17A: Assay layout. CHO cells were seeded in 6 well plates, transfected with BAP070-01 (recombinant chimera), BAP070-01 humanized hits or vector only using BioAtla's transfection protocol and cultured at 37° C. in DMEM with 10% serum. Supernatants were collected at 48 hours post-transfection. Concentration of IgG in the supernatant was determined using BioAtla's quantitation ELISA. […] Vector only supernatant (column 7) was used as negative control. Bound antibodies were detected with anti-human IgG conjugated with HRP (1:2500). The reactions were stopped with 1 N HCl at 1.5 minutes after TMB was added to the wells and read immediately. OD 450 nm value of the reactions was measure with Molecular Device SPECTRAMAX® Plus. FIG. 17B: OD 450 nm value of the reactions measured with Molecular Device SPECTRAMAX® Plus. FIG. 17C: SOFTMAX® graph of […] data (Brown triangle: BAP070-01 recombinant chimeric antibody). X axis: Antibody concentration in ng/ml. Y axis: OD 450 nm values

[2] = biological target: T1, Human hepcidin peptide (hepcidin-25); test: titration affinity ELISA, hepcidin 100 ng/well on Nunc Immobilizer Amino plate, CHO supernatant; antibody 25 ng/ml
Description: as §1

[3] = biological target: T1, Human hepcidin peptide (hepcidin-25); test: titration affinity ELISA, hepcidin 100 ng/well on Nunc Immobilizer Amino plate, CHO supernatant; antibody 50 ng/ml
Description: as §1

[4] = biological target: T1, Human hepcidin peptide (hepcidin-25); test: titration affinity ELISA, hepcidin 100 ng/well on Nunc Immobilizer Amino plate, CHO supernatant; antibody 100 ng/ml
Description: as §1

[5] = biological target: T1, Human hepcidin peptide (hepcidin-25); test: titration affinity ELISA, hepcidin 100 ng/well on Nunc Immobilizer Amino plate, CHO supernatant; antibody 1.56 ng/ml
Description: as §1

[6] = biological target: T1, Human hepcidin peptide (hepcidin-25); test: titration affinity ELISA, hepcidin 100 ng/well on Nunc Immobilizer Amino plate, CHO supernatant; antibody 12.5 ng/ml
Description: as §1

[7] = biological target: T1, Human hepcidin peptide (hepcidin-25); test: titration affinity ELISA, hepcidin 100 ng/well on Nunc Immobilizer Amino plate, CHO supernatant; antibody 3.13 ng/ml
Description: as §1

[8] = biological target: T1, Human hepcidin peptide (hepcidin-25); test: titration affinity ELISA, hepcidin 100 ng/well on Nunc Immobilizer Amino plate, CHO supernatant; antibody 6.25 ng/ml
Description: as §1

B1: BAP070-01 (human-mouse chimeric MAb 583) (antibody, human IgG1, kappa, V domains shown)
VH: QIQLVQSGPELKKPGETVKISCKASGYTFTNYGMNWVKQAPGKGLKWMGWINTYTGEPTYADDFKGRFAFSLETSASTAYLQINNLKNEDTATYFCTTYATSWYWGQGTLVTVSS
VL: DIVLTQSPASLAVSLGQRATISCRASESVDSYGNSFMHWYQQKPGQPPKLLIYRASNLESGIPARFSGSGSRTDFTLTINPVEADDVATYYCQQSNEDLTFGQGTKVEIKR
notes: used as CHO cell supernatant; also called BAP070-1
- OD 450 nm [1]: 0.05 OD450
- OD 450 nm [2]: 2.57 OD450
- OD 450 nm [3]: 3 OD450
- OD 450 nm [4]: 3.33 OD450
- OD 450 nm [5]: 0.492 OD450
- OD 450 nm [6]: 1.8 OD450
- OD 450 nm [7]: 0.793 OD450
- OD 450 nm [8]: 1.32 OD450

B2: BAP070-hum01 (antibody, IgG1, V domains shown)
VH: QVQLVQSGAEVKKPGASVKVSCKASGYTFTNYGMNWVRQARGQRLEWIGWINTYTGEPTYADDFKGRLTISKDTSKNQVVLTMTNMDPVDTATYYCTTYATSWYWGQG
VL: DIQMTQSPSSLSASVGDRVTITCRASESVDSYGNSFMHWYQQKPGQAPRLLIYRASNLESGVPSRFSGSGSGTDFTFTISSLQPEDIATYYCQQSNEDLTFG
notes: Expressed as soluble IgG1 in CHO cells, tested as supernatant; The entries stop inside FR4 (...WGQG / ...FG); also called humanized hit 1
- OD 450 nm [1]: 0.05 OD450
- OD 450 nm [2]: 2.83 OD450
- OD 450 nm [3]: 3.02 OD450
- OD 450 nm [4]: 3.3 OD450
- OD 450 nm [5]: 0.827 OD450
- OD 450 nm [6]: 2.26 OD450
- OD 450 nm [7]: 1.29 OD450
- OD 450 nm [8]: 2.05 OD450

B3: BAP070-hum04 (antibody, V domains shown)
VH: B2 VH
VL: AIQLTQSPSSLSASVGDRVTITCRASESVDSYGNSFMHWFQQRPGQSPRRLIYRASNLESGIPPRFSGSGYGTDFTLTINNIESEDAAYYFCQQSNEDLTFG
notes: Expressed as soluble IgG1 in CHO cells, tested as supernatant; The entries stop inside FR4
- OD 450 nm [1]: 0.045 OD450
- OD 450 nm [2]: 2.81 OD450
- OD 450 nm [3]: 2.99 OD450
- OD 450 nm [4]: 3.35 OD450
- OD 450 nm [5]: 0.827 OD450
- OD 450 nm [6]: 2.33 OD450
- OD 450 nm [7]: 1.38 OD450
- OD 450 nm [8]: 2 OD450

B4: BAP070-hum05 (antibody, IgG1, V domains shown)
VH: EVQLVQSGAEVKKPGESLRISCKGSGYTFTNYGMNWIRQPPGKGLEWIGWINTYTGEPTYADDFKGRVTISADKSISTAYLQWSSLKASDTAMYYCTTYATSWYWGQG
VL: B2 VL
notes: as for B3
- OD 450 nm [1]: 0.037 OD450
- OD 450 nm [2]: 2.63 OD450
- OD 450 nm [3]: 2.85 OD450
- OD 450 nm [4]: 3.11 OD450
- OD 450 nm [5]: 0.59 OD450
- OD 450 nm [6]: 1.94 OD450
- OD 450 nm [7]: 0.949 OD450
- OD 450 nm [8]: 1.48 OD450

B5: BAP070-hum03 (antibody, IgG1, V domains shown)
VH: QVQLVQSGAEVKKPGASVKVSCKASGYTFTNYGMNWVRQATGQGLEWMGWINTYTGEPTYADDFKGRFVFSLDTSVSTAYLQICSLKAEDTAVYYCTTYATSWYWGQG
VL: B2 VL with D1A, M4L
notes: as for B3
- OD 450 nm [1]: 0.051 OD450
- OD 450 nm [2]: 2.62 OD450
- OD 450 nm [3]: 2.93 OD450
- OD 450 nm [4]: 3.27 OD450
- OD 450 nm [5]: 0.564 OD450
- OD 450 nm [6]: 1.95 OD450
- OD 450 nm [7]: 0.925 OD450
- OD 450 nm [8]: 1.6 OD450

B6: BAP070-hum06 (antibody, IgG1, V domains shown)
VH: B4 VH
VL: B2 VL with D1A, M4L
notes: as for B3
- OD 450 nm [1]: 0.042 OD450
- OD 450 nm [2]: 2.69 OD450
- OD 450 nm [3]: 3.06 OD450
- OD 450 nm [4]: 3.25 OD450
- OD 450 nm [5]: 0.75 OD450
- OD 450 nm [6]: 2.12 OD450
- OD 450 nm [7]: 1.15 OD450
- OD 450 nm [8]: 1.68 OD450

B7: BAP070-hum02 (antibody, IgG1, V domains shown)
VH: B2 VH
VL: AIQLTQSPSSLSASVGDRVTITCRASESVDSYGNSFMHWYQQKPGKAPKLLIYRASNLESGIPARFSGSGSGTEFTLTISSLQSEDFAVYYCQQSNEDLTFG
notes: as for B3
- OD 450 nm [1]: 0.048 OD450
- OD 450 nm [2]: 2.77 OD450
- OD 450 nm [3]: 2.98 OD450
- OD 450 nm [4]: 3.31 OD450
- OD 450 nm [5]: 0.804 OD450
- OD 450 nm [6]: 2.32 OD450
- OD 450 nm [7]: 1.28 OD450
- OD 450 nm [8]: 1.85 OD450
